Target: SARS-CoV-2 RBD (residues 319-541), C-terminal his-tag (SARS-CoV-2, UniProt P0DTC2 319-541)
Experiment: SPR

B1: P17 antibody (full-length IgG1) (antibody, V domains shown)
VH: QQLVESGGGVVQPGRSLRLSCAASGFTFSSYAMHWVRQAPGKGLEWVAVISYDGSNKYYADSVKGRFTISRDNSKNTLYLQMNSLRAEDTAVYYCARHATLMNNKDIWGQGTLVTVSS
VL: not shown
  koff: 0.000221 s⁻¹

Source: paper PMC7705443 (2020)
